Assay results taken from patent US20070083037A1 (published 2007).
Positions count from the first letter of the chain named. Where no end group is shown, it is not given here.

T1: rhesus monkey NPY Y4 receptor protein of SEQ ID NO: 2 (encoded by the nucleotide sequence of SEQ ID NO: 1) (rhesus monkey, UniProt P0DQD5 1-375 (human entry))
T1 chain: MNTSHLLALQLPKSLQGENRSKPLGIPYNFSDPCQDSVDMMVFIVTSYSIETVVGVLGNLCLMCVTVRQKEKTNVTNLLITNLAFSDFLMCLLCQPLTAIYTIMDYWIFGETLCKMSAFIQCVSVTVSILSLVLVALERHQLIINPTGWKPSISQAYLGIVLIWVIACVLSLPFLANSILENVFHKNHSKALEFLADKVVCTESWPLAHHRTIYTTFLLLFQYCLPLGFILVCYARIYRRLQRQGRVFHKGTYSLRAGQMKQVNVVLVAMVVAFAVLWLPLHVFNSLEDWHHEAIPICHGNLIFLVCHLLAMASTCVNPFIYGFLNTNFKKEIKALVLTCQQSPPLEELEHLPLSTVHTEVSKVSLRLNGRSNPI

T2: rhesus monkey NPY Y4 receptor protein of SEQ ID NO: 4 (encoded by the nucleotide sequence of SEQ ID NO: 3) (rhesus monkey, UniProt P0DQD5 1-375 (human entry))
T2 chain: T1 chain with V361A

B1: human Neuropeptide-Y (peptide)
peptide: not shown
notes: mature; also called human NPY; NPY
B2: swine Peptide YY (peptide)
peptide: not shown
notes: mature; also called swine PYY; PYY

Experiments:
[1] = target: T1, rhesus monkey NPY Y4 receptor protein …; assay: cell-based or functional assay
[2] = target: T2, rhesus monkey NPY Y4 receptor protein …; assay: cell-based or functional assay
[3] = target: T1, rhesus monkey NPY Y4 receptor protein …; assay: competition against 59 pM [125I]human PP, COS-7 membrane fractions, filter binding
Protocol: (§1) The membrane fraction obtained in this manner was incubated for 2 hours at 25° C. together with 31 pM [¹²⁵I]human PP in 25 mM Tris buffer (pH 7.4) containing 10 mM MgCl₂, 1 mM phenylmethylsulfonyl fluoride, 0.1% bacitracin and 0.5% bovine serum albumin, and then filtered through a polyethyleneimine-treated UniFilter-96 GF/C (Perkin-Elmer). After rinsing with 5 mM Tris buffer (pH 7.4) containing 0.3% bovine serum albumin and drying, MicroScint0 (Perkin-Elmer) was added, and a TopCount HTS (Packard) was used to measure the residual radioactivity on the filter. The non-specific binding was measured in the presence of 1 μM human PP.
(§2) Also, with the membrane fraction concentration set to 0.155 and 0.14 mg protein/ml and the [¹²⁵I]human PP concentration set to 59 pM, human PP, human NPY and swine PYY were added to the reaction solution at different concentrations, and a Prism Version 4.00 (GraphPad) was used to determine the 50% inhibitory concentration (IC₅₀ value) from the inhibition curve for each peptide against specific [¹²⁵I]human PP binding (FIGS. 3 and 4).

[4] = target: T2, rhesus monkey NPY Y4 receptor protein …; assay: as above
Protocol: as §1, §2

Binder | EC50 of the increase in fluorescent intensity (intracellular calcium ion concentration, Fluo-4, FLIPR) in CHO-K1 cells with G alpha 15 [1] [nM] | EC50 of the increase in fluorescent intensity (intracellular calcium ion concentration, Fluo-4, FLIPR) in CHO-K1 cells with G alpha 15 [2] [nM] | IC50 [3] [nM] | IC50 [4] [nM]
APLEPVYPGDNATPEQMAQYAADLRRYINMLTRPRY (peptide, UniProt P01298 30-65, looked up, ends and bridges not checked, mature; also called human PP; PP) [human Pancreatic Polypeptide] | 1.8 | 4.8 | 0.24 | 0.17
B1 | – | – | 100 | 97
B2 | – | – | 10 | 9.9
